Measured values from patent publication US20090238821A1 (Eli Lilly, published 2009).

What was measured:
Amyloid-beta 1-42 = target: T1, Amyloid-beta 1-42 (UniProt P05067 672-713); experiment: BIAcore, essentially as in Example 15
T1 construct: domain: Amyloid-beta 1-42; Numbers 1-42 count on the Aβ peptide, not on the APP entry; also called Aβ42; Aβ1-42
Experimental: Antibody affinity (KD=Kd/Ka) was determined using a BIAcore biosensor 2000 and data analyzed with BIAevaluation (v. 3.1) software. A capture antibody (rabbit anti-mouse) was coupled via free amine groups to carboxyl groups on flow cell 2 of a biosensor chip (CM5) using N-ethyl-N-dimethylaminopropyl carbodiimide and N-hydroxysuccinimide (EDC/NHS). A non-specific rabbit IgG was coupled to flow cell 1 as a background control. Monoclonal antibodies were captured to yield 300 resonance units (RU). […] To regenerate the chip, bound anti-Aβ antibody was eluted from the chip using a wash with glycine-HCl (pH 2). A control injection containing no amyloid-beta served as a control for baseline subtraction.

[1] = target: T2, β-amyloid peptide (1-42) conjugated to BSA (UniProt P05067 672-713, C-terminal Cys43 coupled to maleimide-activated bovine serum albumin); experiment: competitive ELISA on Aβ1-42-BSA, competitor of biotinylated Mu266 (0.3 µg/ml), second set
T2 construct: domain: Aβ1-42; Coated on ELISA plates at 10 µg/mL; the carrier BSA is not written as a chain; also called Aβ1-42-BSA conjugate; Aβ1-42-Cys-BSA conjugate
Experimental: (§1) The Aβ₁₋₄₂-BSA conjugate was prepared by dissolving 7.5 mg of Aβ₁₋₄₂-Cys₄₃(C-terminal cysteine Aβ₁₋₄₂, AnaSpec) in 500 μL of dimethylsulfoxide, and then immediately adding 1,500 μL of distilled water. Two (2) milligrams of maleimide-activated bovine serum albumin (Pierce) was dissolved in 200 μL of distilled water. The two solutions were combined, thoroughly mixed, and allowed to stand at room temperature for two (2) hours. A gel chromatography column was used to separate unreacted peptide from Aβ₁₋₄₂-Cys-BSA conjugate.
(§2) After washing the wells with phosphate buffered saline (PBS) containing 0.1% Tween 20 (Washing Buffer) using an ELISA plate washer, the wells were blocked by adding 300 μL of SuperBlock reagent (Pierce) per well. After 30 minutes of blocking, the wells were washed Washing Buffer and excess liquid was removed.
(§3) As a background control, 100 μl of ELISA Buffer was added. The ELISA plate was incubated at room temperature for 90 min. After washing the wells with Washing Buffer, 100 μl of 1 μg/ml HRP-conjugated streptavidin (Cat # 21124, Pierce) was added to each well. […] Absorbance was read at 415 nm. The absorbances were plotted against the log of the competitor concentration, curves were fit to the data points (using Prism) and the IC50 was determined for each antibody using methods well-known in the art.

[2] = target: T2, β-amyloid peptide (1-42) conjugated to …; experiment: competitive ELISA on Aβ1-42-BSA, competitor of biotinylated Mu266 (0.3 µg/ml), first set
Experimental: as §1, §2, §3

B1: humanized 266 antibody (antibody, human IgG1, kappa, V domains shown)
VH: EVQLVESGGGLVQPGGSLRLSCAASGFTFSRYSMSWVRQAPGKGLELVAQINSVGNSTYYPDTVKGRFTISRDNAKNTLYLQMNSLRAEDTAVYYCASGDYWGQGTLVTVSS
VL: DVVMTQSPLSLPVTLGQPASISCRSSQSLIYSDGNAYLHWFLQKPGQSPRLLIYKVSNRFSGVPDRFSGSGSGTDFTLKISRVEAEDVGVYYCSQSTHVPWTFGQGTKVEIKR
notes: Mature antibody expressed from pVk-Hu266 and pVg1-Hu266 in Sp2/0 cells (clone 1D9), purified on protein A; human kappa and gamma 1 constant regions; also called Hu266
Kd (Amyloid-beta 1-42): 4 pM | IC50 [1]: 4 µg/mL | IC50 [2]: 7.5 µg/mL
